Consider three molecules from paper PMC6329974 (Proceedings of the National Academy of Sciences of the …, 2018).

To fix the notation:
B1: proteasome-activating nucleotidase (PAN) from Archaeoglobus fulgidus (enzyme, UniProt O28303 1-398, looked up)
chain: MGDSEIQYLLEKLKKLEEDYYKLRELYRRLEDEKKFIESERIRYEREVRRLRSEVERLRSPPLLVGVVSDILEDGRVVVKSSTGPKFVVNTSQYINEEELKPGARVALNQQTLAIVNVLPTSKDPMVYGFEVEEKPEVSYEDIGGLDVQIEEIREAVELPLLKPELFAEVGIEPPKGVLLYGPPGTGKTLLAKAVANQTRATFIRVVGSEFVQKYIGEGARLVREVFQLAKEKAPSIIFIDELDAIAARRTNSDTSGDREVQRTMMQLLAELDGFDPRGDVKVIGATNRIDILDPAILRPGRFDRIIEVPLPTFEGRIQIFKIHTRKMKLAEDVDFKELARITEGASGADIKAICTEAGMFAIREERAKVTMLDFTKAIEKVLKKTTPIPDLKGVMFV
B2: CP β-subunit from Archaeoglobus fulgidus (natural protein, UniProt Q9P996 12-213, looked up)
chain: TTTVGLVCKDGVVMATEKRATMGNFIASKAAKKIYQIADRMAMTTAGSVGDAQFLARIIKIEANLYEIRRERKPTVRAIATLTSNLLNSYRYFPYLVQLLIGGIDSEGKSIYSIDPIGGAIEEKDIVATGSGSLTAYGVLEDRFTPEIGVDEAVELAVRAIYSAMKRDSASGDGIDVVKITEDEFYQYSPEEVEQILAKFRK
B3: CP α-subunit from Archaeoglobus fulgidus (natural protein, UniProt O29760 1-246, looked up)
chain: MHLPQMGYDRAITVFSPDGRLFQVEYAREAVKRGATAIGIKCKEGVILIADKRVGSKLLEADTIEKIYKIDEHICAATSGLVADARVLIDRARIEAQINRLTYDEPITVKELAKKICDFKQQYTQYGGVRPFGVSLLIAGVDEVPKLYETDPSGALLEYKATAIGMGRNAVTEFFEKEYRDDLSFDDAMVLGLVAMGLSIESELVPENIEVGYVKVDDRTFKEVSPEELKPYVERANERIRELLKK

Common to all, as to assay: cryo-EM structure
Data set [1] concerns the molecule itself.
Data set [2] addresses B3.
Data set [3] concerns the molecule itself. This is another data set of the same source.
The target in data set [4] is B1.

Take B1: the stoichiometry N – broadly, a count of units in the complex or per binding partner – in data set [1] came to 6.

For the molecule B2, the binding result in data set [2] and in data set [3] was “binds” throughout.

Turning to B3, the binding result in data set [4] is on record as “binds”.
